The values that follow come from patent US20100280227A1.

Holding throughout (test): shotgun alanine scan of phage-displayed BR3; F against wild type
The target in assay [1] is human BR3 displayed on phage, G36 alanine-scan mutant (human) (UniProt Q96RJ3).
The target in assay [2] is human BR3 displayed on phage, mutated at A22 in the alanine scan (human) (UniProt Q96RJ3).
The target in assay [3] is human BR3 displayed on phage, R30 alanine-scan mutant (human) (UniProt Q96RJ3).

B1: murine monoclonal antibody 2.1 (antibody, V domains shown)
VH: EVQLQESGPSLVKPSQTLSLTCSVTGDSITRGYWNWIRKFPGNKLEFMGYINYSGTTYYNPSLKSRISITRDTSKNQYYLQLNSVTTEDTATYYCATPHTYGAMDYWGQGTTLTVSA
VL: DIVLTQSPVSLAVSLGQRATISCRASESVDDYGISFMHWYQQKPGQPPKLLIYRASDLESGIPARFSGSGSGTDFTLTINPVETDDVAIYYCQQTSKDPWTFGGGT
B1: the F value in assay [1] came to 14.

B2: murine monoclonal antibody 11G9 (antibody, V domains shown)
VH: DVQLQESGPSLVKPSQTLSLTCSVTGDSITSGYWNWIRKFPGNKLEYMGYISYSGSTYYNPSLKSRISITRDTSKNQFYLQLLSVTTEDTATYYCAGLDGLYWYFDVWGAGTLVTVSS
VL: DIVMTQTPLSLPVSLGDQASISCRSSQSLVHSNGNTYLHWYLQKPGQSPKLLIYKVSNRFSGVPDRFSGSGSGTDFTLKISRVEAEDLGVYFCSQSTHVPPFTFGSGT
B2 returned a F value in assay [2] of 45.

B3: V3-1m (antibody, mouse IgG2a, V domains shown)
VH: EVQLVESGGGLVQPGGSLRLSCAASGFTISSNSIHWVRQAPGKGLEWVAWITPSDGNTDYADSVKGRFTISADTSKNTAYLQMNSLRAEDTAVYYCARRVCYNRLGVCAGGMDYWGQGTLVTVSS
VL: DIQMTQSPSSLSASVGDRVTITCRASQDVSTAVAWYQQKPGKAPKLLIYSASFLYSGVPSRFSGSGSGTDFTLTISSLQPEDFATYYCQQSRITPPTFGQGTKVEIKR
With B3, the F value in assay [3] is 20.
